Test results taken from US20150064134A1.

Tests used:
Assay in all cases: cell-based or functional assay
Abl(h) (human) = Abl(h) (human) (UniProt P00519)
Met(D1246N)(h) (human) = Met(D1246N)(h) (human) (UniProt P08581)
SAPK4(h) (human) = molecular target: T1, SAPK4(h) (human) (UniProt O15264)
T1 sequence (looked up): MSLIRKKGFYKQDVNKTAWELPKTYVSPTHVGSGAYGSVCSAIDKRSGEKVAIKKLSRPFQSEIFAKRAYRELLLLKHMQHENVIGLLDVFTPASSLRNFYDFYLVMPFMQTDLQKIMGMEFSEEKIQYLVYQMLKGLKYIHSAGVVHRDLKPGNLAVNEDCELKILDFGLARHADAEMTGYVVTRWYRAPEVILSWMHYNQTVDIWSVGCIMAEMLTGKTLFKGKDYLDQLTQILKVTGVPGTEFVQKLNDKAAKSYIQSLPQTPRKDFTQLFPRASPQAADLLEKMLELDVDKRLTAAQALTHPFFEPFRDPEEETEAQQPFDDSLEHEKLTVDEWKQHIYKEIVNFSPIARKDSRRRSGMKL

TAO2(h) (human) = molecular target: T2, TAO2(h) (human) (UniProt Q9UL54)
T2 sequence (looked up): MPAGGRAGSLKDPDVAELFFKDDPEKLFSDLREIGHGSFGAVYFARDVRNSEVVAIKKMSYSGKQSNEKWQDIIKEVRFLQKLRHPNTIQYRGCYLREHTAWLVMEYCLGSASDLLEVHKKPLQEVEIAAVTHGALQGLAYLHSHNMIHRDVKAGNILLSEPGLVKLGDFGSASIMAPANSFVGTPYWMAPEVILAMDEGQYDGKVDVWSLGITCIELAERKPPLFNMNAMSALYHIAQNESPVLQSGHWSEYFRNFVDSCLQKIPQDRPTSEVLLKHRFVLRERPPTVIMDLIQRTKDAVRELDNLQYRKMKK

CDK5/p25(h) (human) = CDK5/p25(h) (human) (UniProt Q00535)
NEK3(h) (human) = molecular target: T3, NEK3(h) (human) (UniProt P51956)
T3 sequence (looked up): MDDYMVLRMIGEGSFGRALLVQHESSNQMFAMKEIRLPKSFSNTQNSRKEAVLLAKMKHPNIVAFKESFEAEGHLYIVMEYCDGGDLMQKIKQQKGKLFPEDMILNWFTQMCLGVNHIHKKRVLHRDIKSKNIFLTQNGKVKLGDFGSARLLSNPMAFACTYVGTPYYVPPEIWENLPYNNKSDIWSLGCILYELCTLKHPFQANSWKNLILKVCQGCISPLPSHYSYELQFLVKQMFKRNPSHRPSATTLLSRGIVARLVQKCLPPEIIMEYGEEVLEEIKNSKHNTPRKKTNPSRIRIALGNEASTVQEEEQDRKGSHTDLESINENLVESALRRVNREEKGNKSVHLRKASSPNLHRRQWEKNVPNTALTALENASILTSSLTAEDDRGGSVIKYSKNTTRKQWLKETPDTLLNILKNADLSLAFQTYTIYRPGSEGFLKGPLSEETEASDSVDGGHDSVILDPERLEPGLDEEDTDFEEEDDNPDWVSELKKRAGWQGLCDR

CK1δ(h) (human) = CK1δ(h) (human) (UniProt P48730)
FGFR2(h) (human) = FGFR2(h) (human) (UniProt P21802)
RIPK2(h) (human) = RIPK2(h) (human) (UniProt O43353)
Ret(h) (human) = molecular target: T4, Ret(h) (human) (UniProt P07949)
T4 sequence (looked up): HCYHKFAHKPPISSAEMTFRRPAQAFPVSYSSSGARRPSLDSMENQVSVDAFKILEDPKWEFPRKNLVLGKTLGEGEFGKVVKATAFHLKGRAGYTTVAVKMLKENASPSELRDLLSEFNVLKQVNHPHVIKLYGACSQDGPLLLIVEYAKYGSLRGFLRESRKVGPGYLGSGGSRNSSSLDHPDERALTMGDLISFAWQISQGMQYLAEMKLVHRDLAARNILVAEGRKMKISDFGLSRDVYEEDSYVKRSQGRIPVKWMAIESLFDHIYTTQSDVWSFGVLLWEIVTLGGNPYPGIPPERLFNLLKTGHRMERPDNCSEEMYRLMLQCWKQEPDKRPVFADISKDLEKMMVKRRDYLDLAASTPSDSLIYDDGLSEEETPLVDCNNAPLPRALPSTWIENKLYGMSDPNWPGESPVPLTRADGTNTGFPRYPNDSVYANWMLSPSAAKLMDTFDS

ARK5(h) (human) = molecular target: T5, ARK5(h) (human) (UniProt O60285)
T5 sequence (looked up): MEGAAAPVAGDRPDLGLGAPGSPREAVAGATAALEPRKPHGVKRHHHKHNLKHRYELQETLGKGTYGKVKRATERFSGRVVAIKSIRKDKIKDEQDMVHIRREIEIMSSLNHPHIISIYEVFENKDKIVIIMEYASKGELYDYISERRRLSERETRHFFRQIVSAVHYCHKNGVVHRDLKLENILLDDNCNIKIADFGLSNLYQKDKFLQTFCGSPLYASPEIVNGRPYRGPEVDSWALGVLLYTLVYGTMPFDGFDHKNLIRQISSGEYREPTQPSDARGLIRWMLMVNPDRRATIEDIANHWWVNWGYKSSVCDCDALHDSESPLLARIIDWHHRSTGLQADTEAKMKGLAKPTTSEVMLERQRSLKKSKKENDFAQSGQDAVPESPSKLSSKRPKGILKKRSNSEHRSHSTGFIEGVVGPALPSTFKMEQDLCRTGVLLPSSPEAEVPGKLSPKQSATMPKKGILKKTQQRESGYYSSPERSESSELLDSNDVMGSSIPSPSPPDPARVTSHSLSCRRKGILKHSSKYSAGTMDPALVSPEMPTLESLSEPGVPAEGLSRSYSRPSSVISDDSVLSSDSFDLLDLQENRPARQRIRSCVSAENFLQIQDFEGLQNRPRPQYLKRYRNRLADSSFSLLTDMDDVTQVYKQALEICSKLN

RIPK2(h) (human), sequence (O43353 1-299 limits assumed): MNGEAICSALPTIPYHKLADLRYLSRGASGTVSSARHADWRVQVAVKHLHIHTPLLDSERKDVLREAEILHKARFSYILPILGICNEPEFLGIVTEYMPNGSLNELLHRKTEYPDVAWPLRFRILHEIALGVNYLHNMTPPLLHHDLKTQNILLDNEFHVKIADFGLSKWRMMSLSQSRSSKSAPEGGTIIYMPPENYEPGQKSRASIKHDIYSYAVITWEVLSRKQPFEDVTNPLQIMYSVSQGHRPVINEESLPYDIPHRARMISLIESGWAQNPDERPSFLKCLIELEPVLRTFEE
FGFR2(h) (human), sequence (P21802 456-770 limits assumed): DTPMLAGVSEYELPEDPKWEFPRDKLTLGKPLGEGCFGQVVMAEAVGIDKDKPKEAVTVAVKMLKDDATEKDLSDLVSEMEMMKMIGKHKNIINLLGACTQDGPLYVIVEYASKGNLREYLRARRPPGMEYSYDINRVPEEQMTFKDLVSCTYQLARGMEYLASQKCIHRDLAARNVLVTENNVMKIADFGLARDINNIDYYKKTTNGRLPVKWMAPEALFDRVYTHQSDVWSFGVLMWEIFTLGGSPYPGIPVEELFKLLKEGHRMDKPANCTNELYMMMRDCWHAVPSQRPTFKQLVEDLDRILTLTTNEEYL
Abl(h) (human), sequence (P00519 27-1130 limits assumed): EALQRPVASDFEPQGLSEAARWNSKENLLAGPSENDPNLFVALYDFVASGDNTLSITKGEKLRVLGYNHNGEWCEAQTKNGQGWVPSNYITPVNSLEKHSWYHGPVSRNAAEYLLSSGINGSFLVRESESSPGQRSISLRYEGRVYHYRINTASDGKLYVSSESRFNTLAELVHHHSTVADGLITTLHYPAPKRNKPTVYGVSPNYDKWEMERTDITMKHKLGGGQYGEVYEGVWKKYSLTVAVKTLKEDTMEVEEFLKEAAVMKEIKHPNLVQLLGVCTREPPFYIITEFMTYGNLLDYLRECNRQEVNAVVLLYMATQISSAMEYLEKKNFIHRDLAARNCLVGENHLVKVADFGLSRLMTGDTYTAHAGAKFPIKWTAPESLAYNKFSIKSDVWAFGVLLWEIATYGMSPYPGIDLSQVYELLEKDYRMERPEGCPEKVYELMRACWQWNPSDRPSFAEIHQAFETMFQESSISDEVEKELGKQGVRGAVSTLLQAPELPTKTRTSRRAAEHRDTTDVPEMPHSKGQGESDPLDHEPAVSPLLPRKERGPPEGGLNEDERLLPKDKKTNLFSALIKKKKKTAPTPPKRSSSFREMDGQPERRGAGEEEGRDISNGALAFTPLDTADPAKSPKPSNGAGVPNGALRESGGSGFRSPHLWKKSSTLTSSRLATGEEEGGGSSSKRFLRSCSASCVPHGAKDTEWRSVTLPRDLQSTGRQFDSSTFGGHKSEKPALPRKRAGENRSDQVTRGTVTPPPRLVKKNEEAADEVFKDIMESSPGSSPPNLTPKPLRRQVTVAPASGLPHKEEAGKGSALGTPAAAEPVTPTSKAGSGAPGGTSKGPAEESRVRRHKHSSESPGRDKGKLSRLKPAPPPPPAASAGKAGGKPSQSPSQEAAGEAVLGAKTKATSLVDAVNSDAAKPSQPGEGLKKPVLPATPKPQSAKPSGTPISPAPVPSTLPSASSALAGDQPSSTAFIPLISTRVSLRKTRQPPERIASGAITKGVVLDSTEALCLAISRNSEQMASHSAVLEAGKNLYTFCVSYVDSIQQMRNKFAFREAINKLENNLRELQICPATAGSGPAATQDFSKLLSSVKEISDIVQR

% activity at 100 µM (Abl(h) (human)) [%]	% activity at 100 µM (Met(D1246N)(h) (human)) [%]	% activity at 100 µM (SAPK4(h) (human)) [%]	% activity at 100 µM (TAO2(h) (human)) [%]	% activity at 100 µM (CDK5/p25(h) (human)) [%]	% activity at 100 µM (NEK3(h) (human)) [%]	% activity at 100 µM (CK1δ(h) (human)) [%]	% activity at 100 µM (FGFR2(h) (human)) [%]	% activity at 100 µM (RIPK2(h) (human)) [%]	% activity at 100 µM (Ret(h) (human)) [%]	% activity at 100 µM (ARK5(h) (human)) [%]	Substance
69	82	96	70	89	92	92	14	97	140	78	MMI-0300 (peptide)
84	31	91	74	92	85	93	18	98	145	69	MMI-0400 (peptide)
16	90	48	15	66	20	78	12	30	174	20	MMI-0500 (peptide)
